The text below walks through data of patent publication US11186651B2, “Monoclonal antibody for the detection of the antiretroviral drug emtricitabine (FTC, 2′,3′-dideoxy-5-fluoro-3′-thiacytidine)” (THE UNITED STATES OF AMERICA, AS REPRESENTED BY THE …, priority 2018, dated 2021).

For series [1] the following is noted: cited from earlier work.
Series [2] can be described thus: FTC screening assay: EIA on FTC-peptide coated plates with competition by free FTC. The format is binding. The following applies: supernatant incubated with free FTC. On the procedure:
(§1) An assay was developed to screen the Mabs for reactivity to the FTC conjugates. Microtiter plates were coated with the following reagents: FTC-peptide-dextran, FTC-peptide, FTC-peptide-LPH, FTC-peptide-BSA, FTC heptanoic acid, peptide only, peptide-LPH, peptide-BSA, BSA, LPH, and normal mouse serum (NMS). All compounds were diluted into sodium bicarbonate buffer, pH 9.6, to a concentration of 5 ug/ml; NMS was diluted 1:15. One hundred microliters of each solution was added to a column of the microtiter plate such that each row of the plate allowed the testing of a single clonal supernatant against all of the compounds in a single run. Plates were incubated at 4° C. overnight and then washed 3× with phosphate-buffered saline (PBS) containing 0.05% Tween 20 (PBS-T). Plates were blocked with PBS containing 0.5% nonfat dry milk for 1 hour at 37° C., washed 3×, and dried at 37° C. for 30 minutes. […]
(§2) Clonal supernatants (100 ul) were added to the appropriate wells and incubated at 37° C. for 1 hr. […] Absorbance was measured at 450 nm with a 630 nm reference.
(§3) Persistently reactive clones were further tested using FTC-peptide coated plates. […] Antibodies that yielded a reduction in absorbance versus the sample containing no FTC were selected for optimization in a FTC detection assay.

The test system of series [3] is carrier proteins (LPH, BSA). The series is described as follows: FTC screening assay: EIA on plates coated with carrier proteins. The following applies: plates coated at 5 ug/ml. The format is binding. Here is the method:
as §1, §2, §3

Series [4] in a line: Competitive indirect EIA, reactivity of 5D2 to naturally occurring structural analogs. It counts as binding. The settings on record: cytidine, cysotine, deoxycytidine, adenine, adenosine, deoxyadenosine, guanine, guanosine, deoxyguanosine, thymine, 5-methyluridine, thymidine, uracil, uridine, deoxyuridine; 12 to 1,000 ug/ml. The source says:
Because FTC is an analog of cytidine, a competitive indirect EIA was used to evaluate the reactivity of 5D2 to naturally occurring structural analogs consisting of nitrogenous nucleic acid bases, ribonucleosides, and deoxyribonucleosides, including cytidine, cysotine, deoxycytidine, adenine, adenosine, deoxyadenosine, guanine, guanosine, deoxyguanosine, thymine, 5-methyluridine, thymidine, uracil, uridine, and deoxyuridine. For the competitive assay, the concentrations of these analogs ranged from 12 to 1,000 ug/ml which is similar to the range of FTC found in urine. Reactivity was not detected to all of these naturally occurring analogs using this EIA.

Series [5] is described as follows: Cross-reactivity test of monoclonal antibody 5D2: FTC. The format is binding. Here is the method:
(§4) The monoclonal antibody 5D2 was tested for cross-reactivity. 5D2 was determined to be specific for FTC, and to not bind to the following compounds: […]

Series [6] in a line: Cross-reactivity test of monoclonal antibody 5D2: related compounds. The settings on record: Lamivudine (3TC), FTC-Triphosphate, FTC-Diphosphate, Cytidine, Deoxycytidine, Deoxyuridine, Guanosine, Deoxyguanosine, Deoxyadenosine, Adenosine, Thymidine, Uridine, 5-Methyluridine. The format is binding. Here is the method:
as §4

In the case of `Nc1nc(=O)n([C@@H]2CS[C@H](CO)O2)cc1F` [FTC], the “concentration found in serum or plasma” value in series [1] (serum or plasma) was 1 to 300 ng/mL. Besides, in series [1] (urine), the “concentration excreted unchanged in urine” value was 1000 to 500000 ng/mL.

B1: 5D2: mouse IgG2b kappa monoclonal antibody that specifically binds FTC; heavy chain SEQ ID NO: 1, light chain SEQ ID NO: 2 (antibody, listed as Mus musculus)
heavy: QVQLQQPGAELVKPGASVKVSCKASGYTFTSYWMHWVKQRPGQGLEWIGRIHLSDSDTNYNQNFKDKATLTVDKSSRTAHMHLSSLTSADSAVYYCAMGGTFQSNYDTYWGQGTLVTVSAAKTTPPSVYPLAPGCGDTTGSSVTLGCLVKGYFPESVTVTWNSGSLSSSVHTFPALLQSGLYTMSSSVTVPSSTWPSQTVTCSVAHPASSTTVDKKLEPSGPISTINPCPPCKECHKCPAPNLEGGPSVFIFPPNIKDVLMISLTPKVTCVVVDVSEDDPDVRISWFVNNVEVHTAQTQTHREDYNSTIRVVSALPIQHQDWMSGKEFKCKVNNKDLPSPIERTISKIKGLVRAPQVYILPPPAEQLSRKDVSLTCLVVGFNPGDISVEWTSNGHTEENYKDTAPVLDSDGSYFIYSKLDIKTSKWEKTDSFSCNVRHEGLKNYYLKKTISRSPGK
light: DIQMTQSPASLSASVGETVTITCRASGNIHNYLAWYQQKQGKSPQLLVYNAKTLTDGVPSRFSGSGSGTQYSLKINSLQPEDFGNYYCQHFLYTPYTFGGGTKLEMRRADAAPTVSIFPPSSEQLTSGGASVVCFLNNFYPKDINVKWKIDGSERQNGVLNSWTDQDSKDSTYSMSSTLTLTKDEYERHNSYTCEATHKTSTSPIVKSFNRNEC
Regarding B1, the “reactivity with FTC (reduction in absorbance versus sample containing no FTC)” value in series [2] is recorded as “competitively reactive”. Also, the “reactivity with the carrier proteins” value in series [3] is recorded as “did not react”. Further, in series [4], the “reactivity to naturally occurring analogs” value was “not detected”. In addition, the “specificity for FTC” value in series [5] is recorded as “specific”. The “binding to related compounds (cross-reactivity)” value in series [6] is “not bind”.
